Test: label from the status in PepcDB records

| Sequence | protein production |
| --- | --- |
| MKIGFLGFGKSNRSLLKYLLNHQEAKFFVSEAKTLDGETKKFLEEHSVEYEEGGHTEKLLDCDVVYVSPGIKPDTSMIELLSSRGVKLSTELQFFLDNVDPKKVVGITGTDGKSTATALMYHVLSGRGFKTFLGGNFGTPAVEALEGEYDYYVLEMSSFQLFWSERPYLSNFLVLNISEDHLDWHSSFKEYVDSKLKPAFLQTEGDLFVYNKHIERLRNLEGVRSRKIPFWTDENFATEKELIVRGKKYTLPGNYPYQMRENILAVSVLYMEMFNELESFLELLRDFKPLPHRMEYLGQIDGRHFYNDSKATSTHAVLGALSNFDKVVLIMCGIGKKENYSLFVEKASPKLKHLIMFGEISKELAPFVGKIPHSIVENMEEAFEKAMEVSEKGDVILLSPGGASFDMYENYAKRGEHFREIFKRHGGDEV | failed |
| EVVVTALGIKREKKMLGYAVQELKSDELNKTGDPSVTSALQGKVAGLQMNTSATGLGGSTKITIRGNSSLTDNNQPLWIVDGVPFSDTSTSSASRYDGVDRGSASMDINPDDIESISVLKGPNAAALYGSRAGNGVILITTKKGSK | failed |
| AWKGEVLANNEAGQVTSIIYNPGDVITIVAAGWASYGPTQKWGPQGDREHPDQGLICHDAFCGALVMKIGNSGTIPVNTGLFRWVAPNNVQGAITLIYNDVPGTYGNNSGSFSVNIGKDQS | not failed |
| MVQSAPASEIAALILRGFDDYREQFREITDGARARFEQAQWQEAQRASAQRINLYEEKVAETVAGLRAGLADSELLDVERWPIIKSAYIAQIDLRLDDELAETWFNSIFCGLFSHDNISDGTMFVHTTRPSLRAHARAPYTRTYRPGGDLRQALEKIFDDYRFDVPYDDRERDLERIDALLHSNLPDWVCKDPDLAIELIGSVFYRNKGAYLVGRLFTPDEQWPLVFPLLHREDHGIQFDTVITDEAEVSIIFSFTRSYFMVDVPVPAELVAFLKRLLPGKHLAELYTSIGFYKQGKSEFYRALINHLATTDDRFVMAPGVRGMVMSVFTLPGFNTVFKIIKDRFNPSKSVDHATVIQKYQLVKNHDRVGRLADTQQFADFRFPVSKFEPECLAELLEVAPSTVVMEGDVVLIRHCWTERRMTPLNIYLENASEAQTREALNDYGLAIKQLAAANIFPGDMLLKNFGVTRHGRVVFYDYDEICYLTEVNFRYIPEPRFPEDEMSSEPWYSVGPNDVFPEEFPRFLFVDLNQRRLFAKLHGNLYDAKYWQGLQEQIREGKVIDVFPYRRQETPEQLLG | failed |
| MDKLKVAELFAGVGGFRLGLENTKEKIFDVTWANQWEPSKKIQHAFDCYNSRFITGEHVNKDIALISDEEIANTKADMVVGGFPCQDYSVARSLSGELGIQGKKGVLFWQIIRFIQNTYPKYLLLENVDRLLKSPSSQRGRDFGVMLSTLNELGYNVEWRVINAADYGNAQRRRRVFIFGYKQDLEHHHHHH | not failed |
| MTDTPVPSEATASGWRRALPVIISLAILAMALHALSSQFTDHGYRQIRQAFRALGAGQIALTLLLGLSSYACLVGFDWVGLKRTGKRLHPARVGITAFMAHAVGQTLGFAALTGGAVRLRGYGSVGLTLAEIGQVVLMSTLGFIFGAWVLLGIALMLEPEAAARALPIAAEGIRIAGIALLAGYLAMLVLVGRHGREFGIRSHRFWLPDRTTVLGVTALSVVELGLAAAAFYVLLPPDPGTGYFGFIGIWLVAVVAGLISTVPAGLGVFEWSLLKLLPHVTPAAVLAAALAYRVTYYIVPLLISVAMAAATGLRAPVRASASTARTVWKTLRPWLPQILALAVFAVGAALVIDGTLPTPRARQEVAPLPLIETSHLLVSLGGMLLLLIGQGLQRRSHSAWVLALGVCVLLPPLSLLRGSHISVSLSAALAAVALWAARREFYRQGALLDEAWSWRWLSNLGLVLVATFWLLFFVYSHVEYSNDLWWQFATSANAPRALRALLILCVGVILFGTARLLRGGRRPMPPADAQALQALAPVLASSADTQACLALTGDKAFLRDEKGLGFVMMQRYGGSLISMGDPVGPPEVARALIWRFREEADHMGLRPVFYQVGEKYWQTYLDMGLTLVKLGEEAIVPLEGFTLEGRDRADLRQAWNRGKRGGLSFRMLQPEQVDAVMAELGEVSEQWLDEKAGEEKGFSLGSFDPDYLRRFPMAVAEAEGKIVAFANVWCAPAGGELSVDLMRHSAQAPKGTMDFLFIELFLWGHANGYTRFSLGMAPLSGLAEHRLAGRWNRFASLVARHGERFYGFSGLRRFKSKFAPTWRPRYLVAPGGMHLPAALLDVTRLISVDPGRQD | failed |
| LRARTYGEGGFRVERVLEERPAFTRVQFSYLSDGLRVHGFANLPKGRGPFPVVVVLHGYVEPSRYRLLAYTTPYADFLAERGYLVLHPNFRGHPPSEGAPAQGLRHVYAVDVLNLLAEVRRGAFPQADPAR | failed |
| MELSAVGERVFAAEALLKRRIRKGRMEYLVKWKGWSQKYSTWEPEENILDARLLAAFEEREREMELYGPKKRGPKPKTFLLKAQAKAKAKTYEFRSDSARGIRIPYPGRSPQDLASTSRAREGLRNMGLSPPASSTSTSSTCRAEAPRDRDRDRDRDRERDRERERERERERERERERERGTSRVDDKPSSPGDSSKKRGPKPRKELPDPSQRPLGEPSAGLGEYLKGRKLDDTPSGAGKFPAGHSVIQLARRQDSDLVQCGVTSPSSAEATGKLAVDTFPARVIKHRAAFLEAKGQGALDPNGTRVRHGSGPPSSGGGLYRDMGAQGGRPSLIARIPVARILGDPEEESWSPSLTNLEKVVVTDVTSNFLTVTIKESNTDQGFFKEKR | failed |
| MFPLNFHYEDVSRQDPLLKPNHANVMEVPGSCEIRVVPKAPYNFIIKNGKLAMEIPRGQKFIQTQRGSTGKSFRSNPFLGSNKDKGYVSDLARQSTLRGHGMSNFSVRISTVMSLLDFPVEIRKNSIQFSMETEFCEFSPELEDHFEIFEHIRGFNVTIITSANTQDETLPLWSGFLQKDEGETQ | failed |
| MIKIAIVGFGTVGQGVAELLIRKREEIEKAIGEFKVTAVADSKSSISGDFSLVEALRMKRETGMLRDDAKAIEVVRSADYDVLIEASVTRVDGGEGVNYIREALKRGKHVVTSNKGPLVAEFHGLMSLAERNGVRLMYEATVGGAMPVVKLAKRYLALCEIESVKGIFNGTCNYILSRMEEERLPYEHILKEAQELGYAEADPSYDVEGIDAALKLVIIANTIGVKASYEDVEVTGITQITPEAFQVAAEKGYTIRLIAEVSREKLKVSPRLVPFHHPLAIKGTMNAAMFKTDTAGSIFVAGRGAGKEETASAILSDLYEIYAGPR | failed |
| MSDTLYIKMDQAVEITKKQVTVGDVAKLQCKNKNITNRLKSMKLLEDTTKGKKRYIVSIMKIIEMADQTFQNVDIQNIGETECVVEFKTPKKDDGPM | not failed |
| MTMIKGYSEKVEKIYSKLRKTEEDNLKSRREEIKDKLPKIIKIDSEISRLCLKLSTNIFKKINNRDEYIKSLKNEITNLRMERSELLVSNGYPMDYLQMHYNCSKCKDTGYIGAHKCSCYKKYLVQLYYDNSDLKSLLNENNFENFNINYYSNRKSEDEPRTPRKNMEKILSLSLNYIKNFSDSNENLLFYGNSGTGKTFLSHCIAKDLLERGFLVIYKTSADLAQELKQLQFEPNPTLEDLIINCDLLIIDDLGTEQISAFSKTCFFNLINKKLLSQKKMLISSNYNLEELTRLYSERITSRLFGDFTLCKFYGDDIRINRNLKNKKI | failed |
| MSLEAIHRSTRIEFSKSSLAYNVQYTKQVSGAKTLWLAVKSNAYGHGLLQVSKIARECGVDGLAVSVLDEGIAIRQAGIDDFILILGPIDVKYAPIASKYHFLTTVSSLDWLKSADKILGKEKLSVNLAVDTGMNRIGVRSKKDLKDEIEFLQEHSDHFSYDGIFTHFASSDNPDDHYFQRQKNRWYELIDGLIMPRYVHVMNSGAAMYHSKELPGCNSIARVGTVVYGVEPSEGVLGPIDKLKPVFELKSALTFVKKIPAGEGISYGSKFVTSRDTWIGTLPIGYGDGWLAEYQDFQLLIDGQKCRQVGQIAMDQMMVALPHEYPIGTEVTLIGKSGKYENTLYDLHKHSGVPPWKITVAFSDRLKRMVVDEGHHHHHH | not failed |
| EFTTMLGPAVLGLSLWALLHPGTGAPLCLSQQLRMKGDYVLGGLFPLGEAEEAGLRSRTRPSSPVCTRFSSNGLLWALAMKMAVEEINNKSDLLPGLRLGYDLFDTCSEPVVAMKPSLMFLAKAGSRDIAAYCNYTQYQPRVLAVIGPHSSELAMVTGKFFSFFLMPQVSYGASMELLSARETFPSFFRTVPSDRVQLTAAAELLQEFGWNWVAALGSDDEYGRQGLSIFSALAAARGICIAHEGLVPLPRADDSRLGKVQDVLHQVNQSSVQVVLLFASVHAAHALFNYSISSRLSPKVWVASEAWLTSDLVMGLPGMAQMGTVLGFLQRGAQLHEFPQYVKTHLALATDPAFCSALGEREQGLEEDVVGQRCPQCDCITLQNVSAGLNHHQTFSVYAAVYSVAQALHNTLQCNASGCPAQDPVKPWQLLENMYNLTFHVGGLPLRFDSSGNVDMEYDLKLWVWQGSVPRLHDVGRFNGSLRTERLKIRWHTSDNQKPVSRCSRQCQEGQVRRVKGFHSCCYDCVDCEAGSYRQNPDDIACTFCGQDEWSPERSTRCFRRRSRFLAWGEPAVLLLLLLLSLALGLVLAALGLFVHHRDSPLVQASGGPLACFGLVCLGLVCLSVLLFPGQPSPARCLAQQPLSHLPLTGCLSTLFLQAAEIFVESELPLSWADRLSGCLRGPWAWLVVLLAMLVEVALCTWYLVAFPPEVVTDWHMLPTEALVHCRTRSWVSFGLAHATNATLAFLCFLGTFLVRSQPGRYNRARGLTFAMLAYFITWVSFVPLLANVQVVLRPAVQMGALLLCVLGILAAFHLPRCYLLMRQPGLNTPEFFLGGGPGDAQGQNDGNTGNQGKHE | failed |
| MKFHVIDRENWNREQYFEHYLELKCTFSMTVNVDITLLIKKVHQKGIKFYPTFIYIISRIINKHKEFRTCFNDEGVLGYWEEMIPSYTIFHKDDKSFSSIWTDYSSDFRIFYKNYEEDMRCYASVHGLLTKENIPPNIFPISGIPWTSFTGFNLNINNDGDFLLPIITCGKYFNEENKIMLPVSLQVHHSVCDGYHVSRFIEDLQELSNSCNEWLK | failed |
| MARQTYGTTPWGAWFLDMLKAYDDSGRLSRGKTYANTGKVNSLVVNGQTAGAKVKGNYSPWYHVYFKFPPLSKTNKTAIRSILEKHPIELAGLRAGIMSPALIEALKKKKVRLIPARWNLIERDCTCPDSGDPCKHMAAVLFLLAKEIDHDPRLLFKLAGFDIDSINVPETEVFEKGGTQKLGLLQEQPVPLSLRKNETLNKAADLSSDSSVSETAHNSCELQSPLKFSLGESYLPLITNILPPEPNFSSSDFIIKLTEFYHKAVLNYGLNFYGQEKQSEKQEEKSVNPFLFARVKVNIDNIRKQKRAFPLEPKSPLTVNIKLGETHEINQTLLQAQNFYKTRNSLNEMSPSVKILFSLFALAGKLIQSSAFIPAVFTENKKLFIFWKSLSASSEIKADIFKFAASLTKDFFLPVGKWGRLYCAELLLTALLTEYAASLKFFPNKSYTKDKEIDKLFFLNEEIDISVPGKRNLDTVIYSWLSVLNYSNCGYEYRLTLEALKDDEFFLLSALVRKAKEKRIEAGDDSFALEAEAPFAELNTAAKRSKNPDDILRFPATLAAYLPALSILAIKKNVMLSREETGLFLQKSAKLLQRFGIDIVLPKSLKNILTPKPVISVKSVKGAGNIVSFLNIDDVLSYDRALMLGDTLIDIDEFKKLFLNKSGLVKFNDQFLLLDPEEVAKMLKALEKPADTKEVLQAVLSGNAVCSKPASEIIKNIFRQEEVPVPQNLNAELRPYQKQGYRWLYANIKSGFGCLLADDMGLGKTVQIISLMLSFKNSKEAESPFLVIAPASLLSNWEHEIAKFAPSLKTAVYHGAGRKFTTEADVIISTYQTMQKDIEKLKDKKVFCIILDEAQAIKNSGTKKAHAVKAIQARGRVALTGTPVENNLEDMRSIFDFFLPGYLGTADEFRKKWRIPIELHNSETEADDLKKITSPFLLRRLKTDPKVISDLPDKIITNQYCNLTPEQLAIYENLVETELHKVMGAETKIERQAYVLKLLTALKQVCNHPRAYDKETPIEMKYSGKAAVLIELLNEIISSGEKAIIFSQYVGTLDILKNIIQKELGTEPLLLHGQMPASKRKKAVEVFQTDSAYRIFLISLKAGGTGLNLTAANRVIHFDLWYNPAVEDQATDRAFRIGQTKNVFVHRLICSGTFEEKIDEMIQKKREISGMSISAGETWISKLSNEELAGLFKS | failed |

Reference: a protein production outcome set (Wang et al. 2014)
